Patent US20170327535A1

Target: aTNFa-Fab (Fab fragment of Infliximab, Remicade)
Experiment: dynamic binding capacity on a 1 mL-gel column, 1 mg/mL aTNFa-Fab at […], 55% breakthrough

B1: LB5t-Wild.4d (four connected B5 domains of PpL312), immobilized on agarose carrier (protein)
chain: KEETPETPETDSEEQVTIKENIYFEDGTVQTATFKGTFAEATAEAYRYADLLSKEHGKYTADLEDGGYTINIRFAGKEKTPEEPKEQVTIKENIYFEDGTVQTATFKGTFAEATAEAYRYADLLSKEHGKYTADLEDGGYTINIRFAGKEKTPEEPKEQVTIKENIYFEDGTVQTATFKGTFAEATAEAYRYADLLSKEHGKYTADLEDGGYTINIRFAGKEKTPEEPKEQVTIKENIYFEDGTVQTATFKGTFAEATAEAYRYADLLSKEHGKYTADLEDGGYTINIRFAGKKVDEKPEEC
modifications: coupled to maleimide-activated (EMCH) NHS Activated Sepharose 4 Fast Flow through a reactive amino acid residue
Question: With B1 as the binder, how does the 55% DBC read?
Answer: 48.6 mg/mL/gel
